# Data as given in patent publication US20240139289A1 (EXTEND BIOSCIENCES, published 2024).
# Ends that are not written are not given here.
# T1: Vitamin D binding protein (DBP) (Homo sapiens (Human)) (UniProt P02774)
# T1 sequence: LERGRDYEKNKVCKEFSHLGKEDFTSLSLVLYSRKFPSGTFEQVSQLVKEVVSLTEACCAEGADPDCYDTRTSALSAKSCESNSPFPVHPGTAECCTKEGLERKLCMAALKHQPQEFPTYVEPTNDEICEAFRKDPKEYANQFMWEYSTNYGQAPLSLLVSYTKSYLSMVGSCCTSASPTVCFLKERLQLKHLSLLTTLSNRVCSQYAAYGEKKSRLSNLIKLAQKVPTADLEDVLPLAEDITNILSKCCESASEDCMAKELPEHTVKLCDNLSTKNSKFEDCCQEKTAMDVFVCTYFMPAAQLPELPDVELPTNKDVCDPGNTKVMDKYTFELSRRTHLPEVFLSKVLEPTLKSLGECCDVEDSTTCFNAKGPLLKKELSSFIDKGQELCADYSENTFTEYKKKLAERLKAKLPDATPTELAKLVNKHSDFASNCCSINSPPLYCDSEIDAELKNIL
# T2: human parathyroid hormone receptor 1 (PTHR1) (human, UniProt Q03431 27-593)
# T2 sequence (looked up): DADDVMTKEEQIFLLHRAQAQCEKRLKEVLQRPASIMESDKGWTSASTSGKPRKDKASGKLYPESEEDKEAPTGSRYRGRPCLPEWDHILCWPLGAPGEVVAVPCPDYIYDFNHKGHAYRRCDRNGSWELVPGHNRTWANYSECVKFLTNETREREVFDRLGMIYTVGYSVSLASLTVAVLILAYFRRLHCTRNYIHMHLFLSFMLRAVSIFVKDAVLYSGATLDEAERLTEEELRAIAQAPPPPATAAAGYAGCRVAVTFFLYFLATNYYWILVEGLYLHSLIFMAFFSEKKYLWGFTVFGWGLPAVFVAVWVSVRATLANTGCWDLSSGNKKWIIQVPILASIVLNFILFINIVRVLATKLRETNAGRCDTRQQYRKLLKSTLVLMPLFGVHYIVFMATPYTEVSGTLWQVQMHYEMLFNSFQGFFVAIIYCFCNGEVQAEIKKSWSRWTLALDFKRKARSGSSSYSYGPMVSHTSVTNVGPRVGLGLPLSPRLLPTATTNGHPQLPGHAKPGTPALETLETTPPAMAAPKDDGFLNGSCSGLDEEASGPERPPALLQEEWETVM
# B1: EXT607 (PTH(1-34)-Cys-PEG36-25-hydroxy-vitamin D conjugate, C-terminal acid, R = OH) (peptide)
# peptide: SVSEIQLMHNLGKHLNSMERVEWLRKKLQDVHNFC
# modifications: C-terminal Cys (position 35) carries succinimido-propionylamino-PEG36-propionyl-aminopropyl-25-hydroxy-Vitamin D on its thiol; C-terminus is free acid (-OH)
# B2: EXT608 (PTH(1-34)-Cys-PEG36-25-hydroxy-vitamin D conjugate, C-terminal amide, R = NH2) (peptide)
# peptide: B1 peptide
# modifications: C-terminal Cys (position 35) carries succinimido-propionylamino-PEG36-propionyl-aminopropyl-25-hydroxy-Vitamin D on its thiol; C-terminal amide (-NH2)
# B3: EXT617 (PTH-PEG20 kDa-VitD) (peptide)
# peptide: B1 peptide
# modifications: C-terminal Cys thiol conjugated through maleimide-PEG ~20,000 Da (~455 units) to VitD-NH2 (25-hydroxy vitamin D, C3 position); C-terminal amide
# B4: EXT616 (PTH-PEG10 kDa-VitD) (peptide)
# peptide: B1 peptide
# modifications: C-terminal Cys thiol conjugated through maleimide-PEG ~10,000 Da (~227 units) to VitD-NH2 (25-hydroxy vitamin D, C3 position); C-terminal amide
# Columns and labels:
# [1] = biological target: T1, Vitamin D binding protein (DBP) (Homo sapiens (Human)); assay: BLI (Octet Red96), biotinylated EXT607 on streptavidin tips, DBP 0-75 µM
# [2] = biological target: T2, human parathyroid hormone receptor 1 …; assay: cell-based or functional assay
# [3] = biological target: T1, Vitamin D binding protein (DBP) (Homo sapiens (Human)); assay: BLI (Octet Red96), biotinylated EXT607 on streptavidin tips, DBP 0-75 µM, steady-state fit
# [4] = biological target: T1, Vitamin D binding protein (DBP) (Homo sapiens (Human)); assay: BLI (Octet Red96), biotinylated EXT608 on streptavidin tips, DBP 0-75 µM
# [5] = biological target: T1, Vitamin D binding protein (DBP) (Homo sapiens (Human)); assay: BLI (Octet Red96), biotinylated EXT608 on streptavidin tips, DBP 0-75 µM, steady-state fit
# [6] = biological target: T2, human parathyroid hormone receptor 1 …; assay: cell-based or functional assay; remark: listed apart in the source
binder,measurement,setting,value
B1,maximum response (BLI shift),[1],1.79 nm
same,"EC50, cell-based calcium flux assay in agonist mode (percent efficacy)",[2],21 nM
same,Kd,[3],8100 nM
B2,maximum response (BLI shift),[4],1.79 nm
same,"EC50, cell-based calcium flux assay in agonist mode (percent efficacy)",[2],22 nM
same,Kd,[5],5200 nM
same,"PTHR1 EC50, calcium mobilization assay in agonist mode",[6],28.6 nM
B3,fold increase of PTHR1 EC50 against the conjugates with shorter PEG linkers,[2],~7 fold
same,"PTHR1 EC50, calcium mobilization assay in agonist mode",[6],221 nM
SVSEIQLMHNLGKHLNSMERVEWLRKKLQDVHNFC-NH2 (not fully specified (residue 35); also: acetate salt) [EXT611 (PTH-cys-PEG12-VitD)],"PTHR1 EC50, calcium mobilization assay in agonist mode",[6],32.3 nM
SVSEIQLMHNLGKHLNSMERVEWLRKKLQDVHNFC-NH2 (not fully specified (residue 35); also: acetate salt) [EXT606 (PTH-cys-PEG24-VitD)],"PTHR1 EC50, calcium mobilization assay in agonist mode",[6],30.5 nM
SVSEIQLMHNLGKHLNSMERVEWLRKKLQDVHNFC-NH2 (not fully specified (residue 35); also: acetate salt) [EXT615 (PTH-PEG5 kDa-VitD)],"PTHR1 EC50, calcium mobilization assay in agonist mode",[6],29.9 nM
B4,"PTHR1 EC50, calcium mobilization assay in agonist mode",[6],33.6 nM
